Laboratory results as given in patent US20210246195A1 (CZ BIOHUB SF, published 2021).
Numbering of substitutions follows the chain as printed.

Target: T1, BSA (UniProt P02769 25-607)
T1 construct: also called bovine serum albumin; immobilized BSA
Assay: indirect ELISA heat map, hIgG subtracted

T1 sequence (P02769 25-607 limits assumed): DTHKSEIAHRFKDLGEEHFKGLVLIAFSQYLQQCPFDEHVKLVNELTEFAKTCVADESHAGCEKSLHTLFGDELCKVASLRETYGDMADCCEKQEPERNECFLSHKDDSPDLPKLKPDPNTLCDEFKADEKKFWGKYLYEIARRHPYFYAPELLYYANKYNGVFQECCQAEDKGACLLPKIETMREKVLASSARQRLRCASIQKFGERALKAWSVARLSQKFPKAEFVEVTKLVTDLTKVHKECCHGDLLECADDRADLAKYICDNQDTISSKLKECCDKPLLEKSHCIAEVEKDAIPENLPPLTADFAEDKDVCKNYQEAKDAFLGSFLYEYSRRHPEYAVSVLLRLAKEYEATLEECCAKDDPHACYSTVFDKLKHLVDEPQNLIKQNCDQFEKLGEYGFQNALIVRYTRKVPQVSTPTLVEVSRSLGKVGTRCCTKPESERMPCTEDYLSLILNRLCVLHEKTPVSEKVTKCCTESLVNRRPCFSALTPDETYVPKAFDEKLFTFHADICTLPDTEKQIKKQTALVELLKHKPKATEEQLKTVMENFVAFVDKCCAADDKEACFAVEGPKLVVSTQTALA

B1: PA01P2E08 (antibody, human IgG1, V domains shown)
VH: QVQLVESGGGVVQPGRSLRLSCVASGFDLNAYGMHWVRQAPGKGLDWVAATSRGGTKKYYADSVKGRFTISRDVSKNTLYLQMGSLRTGDTAIYYCGVGMEDVFDIWGQGTMVTVSP
VL: QSVLTQPPSVSAAPGQKVTISCSENNSNIGNRNVSWYQQLPGKAPKLFIYDNNERPSGIPARFSGSKSGTSATLVITGLQTGDEADYYCGTWDRSLSVWVFGGGTKLTVL
binding result: no binding (tested: 2 ng/µL)

B2: PA01P2B10 (antibody, V domains shown)
VH: QVQLQQWGAGLLKPSETLSLTCGVHGGSLNNYYWSWIRQPPGKGLEWIGEVYHSGSINYNPSLKSRVTMSVDTSKNQFSFNLSSVTAADTAVYYCARGAYDSRGFWTLDAFNTWGQGTMVIVSS
VL: DIQMTQSPSALSASLGDRVTITCRASESINSWLAWYQQKPGKAPKLLIYKASTLESGVPSRFSGSGSGTEFTLTISSLQPDDFATYYCHQYNRYSYTFGQGTKLDIK
notes: subject PA01; also called Clone PA01P2B10
binding result: no binding (tested: 2 ng/µL)

B3: PA01P2C12 (antibody, V domains shown)
VH: HVQLQESGPGLVKSSETLSLTCNVSSDSFSDHYWSWVRQPAGKGLQWLGRIYNTGTTTYNPSLNRRITMSVDTSKNQFSLRLTSVTAADTAVYYCAARHYHYDKTIWGQGTLVTVSS
VL: NFMLTQPHSVSESPGKTVTISCTRSSGSIASNYVQWYQQRPGSPPTTVIYEDNQRPSGVPDRFSGSIDSSSNSASLTISGLKPEDEADFYCQSYDSDDREVFGGGTRLTVL
notes: subject PA01; also called Clone PA01P2C12
binding result: no binding (tested: 2 ng/µL)

B4: PA01P2E07 (antibody, V domains shown)
VH: QLQLQESGSGLVKPSQTLSLTCAVSGGSITSGTYSWTWIRQSPEKGLEWIGYIYYTGSTYYNPSLGRRVTISGDTSNNEFSLNLKSVTAADTAVYYCARGIHRGGVLDFWGQGILVTVSS
VL: EIVLTQSPATLPLSPGERATLSCRASQSLDKYLAWYQQKPGQAPRLLIYDTSKRATGIPARFSGSGSGTDFTLTISSLEPEDFAVYFCQQRNNWPPYTFGQGTKVEMK
notes: subject PA01; also called Clone PA01P2E07
binding result: no binding (tested: 2 ng/µL)

B5: PA01P4C11 (antibody, V domains shown)
VH: EVQLLESGGGLLQLGGSLRLSCAASGFTFSSYVMSWVRQAPGKGLEWVSLITGSGGNTYYADSVKGRFTISRDNSKNTLFLQMNSLRVEDTAIYYCVKTDFYDSSGYYFHDAFHIWGQGTMVTVSS
VL: QTVVTQEPSLTVSPGGTVTLTCASSTGSVTSGYYPNWFQQKPGQAPRTLIYGTSNKHSWTPARFSGSLLGGKAALTLSDVQPEDEAEYYCLLYYGGAYVFGTGTKVTVL
notes: subject PA01; also called Clone PA01P4C11
binding result: no binding (tested: 2 ng/µL)

B6: PA01P2B04 (antibody, V domains shown)
VH: QVQLQQWGAGLLKPSETLSLTCTVIGTSFSNYYWSWIRQPPGKGLQWIGEITHSDSANYNPSLKSRVIISIDSSKNQLSLNLSSVTAADTAVYYCARGSKDYYDRSTFSWFDPWGQGTLVTVSS
VL: EIVMTQSPATLSVSPGERATLSCRASQNISNKLAWYQQKPGQAPRLLIYDASTRATGVPARFSCSVSGTAFTLTINRLQSEDFAVYYCQQYYYWPPPYTFGHGTKLEIK
notes: subject PA01; also called Clone PA01P2B04
binding result: no binding (tested: 2 ng/µL)

B7: PA01P1D06 (antibody, V domains shown)
VH: QVTLRESGPALVEVTQTVTLTCNFSGFSLHTRGMYVNWIRQPPGKALEWLAVINWDDDKYYTPSLKNRLTISKDTSKNQVVLTMTNMDPVDTATYYCARTDYGGYGPEGFDYWGQGTLVTVSS
VL: EIVMTQSPATLSVSPGESATLSCRASQSVRSNLAWYQQKPGQAPRLLIYGASTRAPGVPARFTGSESGREFTLTISSLQSEDFAVYYCQQYNNWPPYTFGQGTKLEIK
notes: subject PA01; also called Clone PA01P1D06
binding result: no binding (tested: 2 ng/µL)

B8: PA01P2E10 (antibody, V domains shown)
VH: QVQLVQSGAEVKKPGASVKVSCKASGYTFTTYGISWVRQAPGQGLEWMGWISAYNGNTTYAQNFHARVTMTTDTSTSTAYMELRSLRSDDTAVYFCARTSARTITIFGVLIPAGLNLDYWGQGTLVTVSS
VL: QSALTQPASVSGSPGQSITISCTGTGSDVGRYNYVSWYQQHPGKAPKFMIYDVSNRPSGVSNRFSASKSGNTASLTISGLQAEDEADYYCSSYTSTSTLVFGGGTKLTVL
notes: subject PA01; also called Clone PA01P2E10
binding result: no binding (tested: 2 ng/µL)

B9: PA01P2E05 (antibody, V domains shown)
VH: QVQLVESGGGFVKPGGSLRLSCAVSGFTFSDYYMSWVRQAPGKGLEWLSHISSDGSDTNYADSVKGRFSISRDNAKNSVFLQMNTLRVEDTAVYYCARNALTNAYDMSGFRNWGQGTLVTVSS
VL: NFMLTQPHSVSESPGKTVILSCTRSSGSIASNYVRWYQQRPGSAPTTVIYEDSRRPSSVPDRFSGSIDSSSNSASLTISGLKTEDEADYYCQSFDSSSRKVVFGGGTKLTVL
notes: subject PA01; also called Clone PA01P2E05
binding result: no binding (tested: 2 ng/µL)

B10: PA01P2C09 (antibody, V domains shown)
VH: B9 VH with Q3D, F11Y, P14S, V24A, T28R, G55S, V88A, T117I
VL: B9 VL with S31T, K82R, S96T
notes: subject PA01; also called Clone PA01P2C09
binding result: no binding (tested: 2 ng/µL)

B11: PA01P2D11 (antibody, V domains shown)
VH: QLQLQESGSGLVKPSQTLSLTCDVSGDSMNDDVYTWSWIRQPPGRGLEWIGYISHTGNTFYNSSLQSRVTMSVDTSKNQFSLKLSSVTIADTAVYYCARLTFLFSAPFSSFNWFDPWGQGILVTVSS
VL: QSVLTQPPSVSGAPGQTITISCTGTPSNFGADYDVHWYQQRPGTAPKLLIFADKHRPSGVPDRFSGSRSGTSASLAISGLQAEDEADYYCQSYDSGVVGLWVFGGGTKVTVL
notes: subject PA01; also called Clone PA01P2D11
binding result: no binding (tested: 2 ng/µL)

B12: PA01P2D04 (antibody, human IgG1, V domains shown)
VH: QVQLLQSGPEVKQPGASVQVSCQTSGYTFTGYYIHWVRQAPGQGLEWVGWINPNRGHTNYGPAFQGRLTLTADTSSSTAYLELTRLRSDDTAVYYCARDRLTGGRDAFEIWGQGTMLIVSS
VL: DIQLTQSPSSLSASVGDRVTITCRASQSISSYLNWYQQKPGKAPKLLISVASSLQDGVPPRFSGSRSGTEFTLTISSLQPEDFAIYYCQQSYSLSWTFGQGTKVEIK
binding result: no binding (tested: 2 ng/µL)

B13: PA01P2B12 (antibody, human IgG1, V domains shown)
VH: B12 VH with L5V, P9A, S21A, T28I, G31A, V37L, G61A, A63G, E82A, R87A
VL: B12 VL with I29V, K42E, V50A, S95W
binding result: no binding (tested: 2 ng/µL)

B14: PA01P2B03 (antibody, V domains shown)
VH: EVQLVQSGAEVKKPGESLKISCKGSGYNFTSSWIGWVRQMPGKGLEWMGIIHPGDSDTRYSPSFQGQVTISADKSLTTAFLQWSSLKTSDTAIYYCARHGSTMLWGDAFDIWGQGTMVTVSS
VL: SYELTQPPSVSLSPGQTARITCSGDALPKHYAYWYQQKPGQAPVLVIYKDTERPSGIPERFSGSSSGTTVTLTISGVQAEDEADYYCQSSDSTGEVFGGGTKLTVL
notes: subject PA01; also called Clone PA01P2B03
binding result: no binding (tested: 2 ng/µL)

B15: PA01P2D09 (antibody, human IgG1, V domains shown)
VH: EVQLLESGGGLVQPGGSLRLSCAVSGLKFSSYAMSWVRQAPGKGLEWVSVVSGSSGSTFYAVSVEGRFSISRDNSNNMLYMDMHSLRVEDTAKYYCAKVVGWYYDRNGNRRPKGFRAFDVWGQGTMVIVSS
VL: QSVLTQPPSASGTPGQRITIACSGTTSNIGGNSVNWYQQFPGAAPRLLIFDYDQRPSGVPARFSGSSSGSSGYLAISGLQSEDEADYYCSSWDDNLNGWVFGGGTKLTVL
notes: also called PA1P2D09
binding result: no binding (tested: 2 ng/µL)

B16: PA01P2D10 (antibody, human IgG1, V domains shown)
VH: EVLLLESGGGLVHPGGTLRLSCAASGFTFRNSAMTWVRQAPGKGLEWVSSIGGSGAKSYYADSVKGRFTISRDNSKNTLYLEMNTLRVDDTAIYYCAKDQLNCYDLWSGDYCWFDTWGQGTLVTVSS
VL: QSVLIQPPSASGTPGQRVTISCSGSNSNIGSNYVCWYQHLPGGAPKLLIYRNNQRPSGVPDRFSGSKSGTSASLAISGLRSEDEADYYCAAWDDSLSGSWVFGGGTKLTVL
binding result: no binding (tested: 2 ng/µL)

B17: PA01P2C04 (antibody, V domains shown)
VH: QVQLQESGPGLVKPSETLSLTCSVSGGSISSHYWSWIRQPPGRGLEWIAYISYSGRTKYNPSLKSRVTISEDTSKNQFSLKLSSVTPADTAVYYCARIYGDYGPFIDYWGQGTLVTVSS
VL: DIQMTQSPSSLSASVGDRVTITCRASQTISTYLNWYQQKPGTAPMLLIYGAYSLHSGVPSRFSGSGSGTDFTLTISSLQPEDFATYYCQQSSSLPLTFGGGTKVEIK
notes: subject PA01; also called Clone PA01P2C04
binding result: no binding (tested: 2 ng/µL)

B18: PA01P2A05 (antibody, V domains shown)
VH: QVQLQESGPGLVKPSQTLSLTCTVSGGSMRSGDYYWSWIRQPPGKGLEWIGYIYFTGSSYYNPSLKSRATISVDTSKNQFSLKLNSVTAADTAVYFCARGVDVDLTFFDCWGHGTLVTVSS
VL: SYVLTQPPSVSLAPGKTARITCGGNNIGNKSVHWYQQKPGQAPVLVIYYDSDRPSGIPERFSGSNSGNTATLTINRVEAGDEADYHCQVWDSSTDHRVFGEGTKLTVL
notes: subject PA01; also called Clone PA01P2A05
binding result: no binding (tested: 2 ng/µL)

B19: PA01P2G07 (antibody, V domains shown)
VH: QVLLVQSGSEVKNPGASIRVSCKTSGYMFTNNGIAWVREVPTQGLEWMGWISTYSGATHYAPNLHGRITMTADTSASTAYMELRSLQSGDTGVYYCARLWFGKLGLDFWGQGTQVTVSS
VL: QSVLTQPPSASGTPGQRVIISCSGSTSNIGTKTVNWYQHLPGTAPKLLIYNNNQRPSGVPDRFSGSKSGTSASLTISGLQSEDEADYYCAAWDDSLNGRGLFGPGTKVTVL
notes: subject PA01; also called Clone PA01P2G07
binding result: no binding (tested: 2 ng/µL)

B20: PA01P2B09 (antibody, V domains shown)
VH: QVEVVESGGGVVQPGKSLRLSCAASGFKFNVYGIHWVRQAPGKGLEWVAVVWYDGSNKYYADSVKGRFTISRDNSKNTTYLQMDSLRVDDTAVYYCARELQYSNYDYFYAMDVWGQGTTVTVSS
VL: DIQMTQSPPSLSASVGDRVTITCRASQDIDNYLVWFQQKPGRAPKSLIYAASSLQSGVPSKFSGSGSGTEFTLTISSLQPEDFATYYCQQYNSFPYTFGQGTKLEIK
notes: subject PA01; also called Clone PA01P2B09
binding result: no binding (tested: 2 ng/µL)

B21: PA01P2B05 (antibody, human IgG1, V domains shown)
VH: EVQLLESGGGLVQPGGSLRLSCVASGFTFSGHAMSWVRQAPGKGLEWVSGISGSGGSTYYADSVKGRFTISRDNSKKTVDLQMNNLRAEDTAIYYCAKDLHFDTSGYYYSMIFDYWGQGTLVPVSS
VL: QSALAQPASVSGSPGQSITISCTGTSSDISDYNYVSWYQQHPGKAPKLILYDVNNRPSGVSSRFSGSKSGDTASLTISGLQPEDEADYYCSSYTSTKIFGGGTKVTVL
binding result: no binding (tested: 2 ng/µL)

B22: PA01P3E08 (antibody, V domains shown)
VH: QVQLVQSGAEVKKPGASVKVSCKASGYTFIRYDIHWVRQATGQGLEWMGWMNPNNGKSGFAQKFEGRVTLTRNTSVTSTYMQLSSLGLEDTAVYYCVRAGYSYGWGFDYWGQGSLVTVSS
VL: NFTLTQPHSVSGSPGKTVTISCTRSSGGIASSHVQWYQQRPASAPTTLIFEDDQRSSGVPDRFSGSIDTSSNSAYLTISGLEAEDEADYYCQSYDNSMWVFGGGSKVTVL
notes: subject PA01; also called Clone PA01P3E08
binding result: no binding (tested: 2 ng/µL)
